Assay results published in the supplement of paper PMC10567573.

B1: FCHSD1 (parent)
chain: LQEPGVFSPTPPQQFQPAGTDQVC
B2: MMP1 (parent)
chain: FVRGDHRDNSPFDGPGGNLAHAFQ

Variants of: B1
Assay: protein stability index of a GFP-peptide fusion (GPS, HEK-293T) (PSI 1-6); higher = more stable
Conditions: c terminus: a fixed tail appended
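Note: lentivirally expressed fusions sorted by FACS into six bins by GFP to DsRed ratio, PSI derived from sequencing read proportions per bin multiplied by bin number.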

**Q.** With LQEPGVFSPTPPQQFQPAGTDWVC [Q22W] as the variant, how does the protein stability index read?
**A.** 2.94

Variants of: B2
Assay: as above
Conditions: c terminus: a fixed tail appended

**Q.** For FVRGDHRDNSPFDWPGGNLAHAFQ [G14W], which protein stability index is on record?
**A.** 1.69

**Q.** With FVRGDHRDNSPFDDPGGNLAHAFQ [G14D] as the variant, how does the protein stability index read?
**A.** 2.25

**Q.** With FVRGDHRDNSPFDNPGGNLAHAFQ [G14N] as the variant, how does the protein stability index read?
**A.** 1.7

**Q.** With FVRGDHRDNSPFDQPGGNLAHAFQ [G14Q] as the variant, how does the protein stability index read?
**A.** 3.14

**Q.** With FVRGDHRDNSPFDTPGGNLAHAFQ [G14T] as the variant, how does the protein stability index read?
**A.** 1.76

**Q.** Which protein stability index does the source give for FVRGDHRDNSPFDPPGGNLAHAFQ [G14P] here?
**A.** 1.91

**Q.** For FVRGDHRDNSPFDAPGGNLAHAFQ [G14A], which protein stability index is on record?
**A.** 2.12

**Q.** With FVRGDHRDNSPFDGPGGNLAHASQ [F23S] as the variant, how does the protein stability index read?
**A.** 1.88

**Q.** Which protein stability index does the source give for FVRGDHRDNSPFDGPGGNLAHANQ [F23N] here?
**A.** 1.73

**Q.** For FVRGDHRDNSPFDGPGGNLAHAGQ [F23G], which protein stability index is on record?
**A.** 2.12

**Q.** Which protein stability index does the source give for FVRGDHRDNSPFDGPGGNLAHALQ [F23L] here?
**A.** 1.89

**Q.** With FVRGDHRDNSPFDGPGGNLAHAWQ [F23W] as the variant, how does the protein stability index read?
**A.** 2.74

**Q.** With PVRGDHRDNSPFDGPGGNLAHAFQ [F1P] as the variant, how does the protein stability index read?
**A.** 3.59

**Q.** Which protein stability index does the source give for IVRGDHRDNSPFDGPGGNLAHAFQ [F1I] here?
**A.** 2.82

**Q.** With MVRGDHRDNSPFDGPGGNLAHAFQ [F1M] as the variant, how does the protein stability index read?
**A.** 3.32

**Q.** With NVRGDHRDNSPFDGPGGNLAHAFQ [F1N] as the variant, how does the protein stability index read?
**A.** 3.66

**Q.** With KVRGDHRDNSPFDGPGGNLAHAFQ [F1K] as the variant, how does the protein stability index read?
**A.** 3.56

**Q.** Which protein stability index does the source give for DVRGDHRDNSPFDGPGGNLAHAFQ [F1D] here?
**A.** 4.41

**Q.** With LVRGDHRDNSPFDGPGGNLAHAFQ [F1L] as the variant, how does the protein stability index read?
**A.** 3.52

**Q.** Which protein stability index does the source give for GVRGDHRDNSPFDGPGGNLAHAFQ [F1G] here?
**A.** 3.33

**Q.** With HVRGDHRDNSPFDGPGGNLAHAFQ [F1H] as the variant, how does the protein stability index read?
**A.** 3.28

**Q.** With FVRGDHRDNSPFDGPGGKLAHAFQ [N18K] as the variant, how does the protein stability index read?
**A.** 2.5

**Q.** With FVRGDHRDNSPFDGPGGPLAHAFQ [N18P] as the variant, how does the protein stability index read?
**A.** 2.17

**Q.** Which protein stability index does the source give for FVRGDHRDNSPFDGPGGILAHAFQ [N18I] here?
**A.** 1.01

**Q.** Which protein stability index does the source give for FVRGDHRDNSPFDGPGGHLAHAFQ [N18H] here?
**A.** 1.88

**Q.** With FVRGDHRDNSPFDGPGGTLAHAFQ [N18T] as the variant, how does the protein stability index read?
**A.** 1.92

**Q.** For FVRGDHRDNSPFDGPGGCLAHAFQ [N18C], which protein stability index is on record?
**A.** 1.5

**Q.** Which protein stability index does the source give for FVRGDHRDNSPFDGPGGELAHAFQ [N18E] here?
**A.** 2.15

**Q.** With FVEGDHRDNSPFDGPGGNLAHAFQ [R3E] as the variant, how does the protein stability index read?
**A.** 2.73

**Q.** For FVVGDHRDNSPFDGPGGNLAHAFQ [R3V], which protein stability index is on record?
**A.** 2.37

**Q.** With FVCGDHRDNSPFDGPGGNLAHAFQ [R3C] as the variant, how does the protein stability index read?
**A.** 3.82

**Q.** For FVGGDHRDNSPFDGPGGNLAHAFQ [R3G], which protein stability index is on record?
**A.** 1.3

**Q.** With FVTGDHRDNSPFDGPGGNLAHAFQ [R3T] as the variant, how does the protein stability index read?
**A.** 2.13

**Q.** Which protein stability index does the source give for FVQGDHRDNSPFDGPGGNLAHAFQ [R3Q] here?
**A.** 1.71

**Q.** Which protein stability index does the source give for FVAGDHRDNSPFDGPGGNLAHAFQ [R3A] here?
**A.** 1.63

**Q.** With FVPGDHRDNSPFDGPGGNLAHAFQ [R3P] as the variant, how does the protein stability index read?
**A.** 1.44

**Q.** Which protein stability index does the source give for FVRGDHRDNSPFDGSGGNLAHAFQ [P15S] here?
**A.** 4.22

**Q.** With FVRGDHRDNSPFDGIGGNLAHAFQ [P15I] as the variant, how does the protein stability index read?
**A.** 1.72

**Q.** With FVRGDHRDNSPFDGHGGNLAHAFQ [P15H] as the variant, how does the protein stability index read?
**A.** 1.79

**Q.** With FVRGDHRDNSPFDGKGGNLAHAFQ [P15K] as the variant, how does the protein stability index read?
**A.** 1.94

**Q.** Which protein stability index does the source give for FVRGDHRDNSPFDGDGGNLAHAFQ [P15D] here?
**A.** 2.97

**Q.** Which protein stability index does the source give for FVRGDHRDNSPFDGWGGNLAHAFQ [P15W] here?
**A.** 1.87

**Q.** For FVRGDHRDNSPFDGRGGNLAHAFQ [P15R], which protein stability index is on record?
**A.** 3.76

**Q.** For FVRGDHRDNSPFDGQGGNLAHAFQ [P15Q], which protein stability index is on record?
**A.** 1.64

**Q.** Which protein stability index does the source give for FVRGDHRDNSPFDGGGGNLAHAFQ [P15G] here?
**A.** 1.61

**Q.** For FVRGDHRCNSPFDGPGGNLAHAFQ [D8C], which protein stability index is on record?
**A.** 3.26

**Q.** Which protein stability index does the source give for FVRGDHRFNSPFDGPGGNLAHAFQ [D8F] here?
**A.** 4.46

**Q.** For FVRGDHRANSPFDGPGGNLAHAFQ [D8A], which protein stability index is on record?
**A.** 1.63

**Q.** With FVRGDHRLNSPFDGPGGNLAHAFQ [D8L] as the variant, how does the protein stability index read?
**A.** 2.25

**Q.** For FVRGDHRHNSPFDGPGGNLAHAFQ [D8H], which protein stability index is on record?
**A.** 2.29

**Q.** Which protein stability index does the source give for FVRGDHRENSPFDGPGGNLAHAFQ [D8E] here?
**A.** 1.31

**Q.** With FVRGDHRSNSPFDGPGGNLAHAFQ [D8S] as the variant, how does the protein stability index read?
**A.** 2.08

**Q.** Which protein stability index does the source give for FVRGDHRWNSPFDGPGGNLAHAFQ [D8W] here?
**A.** 3.09

**Q.** With FVRGDHRDKSPFDGPGGNLAHAFQ [N9K] as the variant, how does the protein stability index read?
**A.** 2.47

**Q.** Which protein stability index does the source give for FVRGDHRDWSPFDGPGGNLAHAFQ [N9W] here?
**A.** 2.12

**Q.** Which protein stability index does the source give for FVRGDHRDGSPFDGPGGNLAHAFQ [N9G] here?
**A.** 1.38

**Q.** For FVRGDHRDYSPFDGPGGNLAHAFQ [N9Y], which protein stability index is on record?
**A.** 2.58

**Q.** For FVRGDHRDCSPFDGPGGNLAHAFQ [N9C], which protein stability index is on record?
**A.** 1.93

**Q.** For FVRGDHRDMSPFDGPGGNLAHAFQ [N9M], which protein stability index is on record?
**A.** 2.27

**Q.** With FVRGDHRDVSPFDGPGGNLAHAFQ [N9V] as the variant, how does the protein stability index read?
**A.** 1.87

**Q.** With FVRGDHRDQSPFDGPGGNLAHAFQ [N9Q] as the variant, how does the protein stability index read?
**A.** 2.07

**Q.** With FVRGDHRDISPFDGPGGNLAHAFQ [N9I] as the variant, how does the protein stability index read?
**A.** 3.22

**Q.** With FVRGDHRDNSRFDGPGGNLAHAFQ [P11R] as the variant, how does the protein stability index read?
**A.** 2.4

**Q.** For FVRGDHRDNSEFDGPGGNLAHAFQ [P11E], which protein stability index is on record?
**A.** 2.06

**Q.** For FVRGDHRDNSHFDGPGGNLAHAFQ [P11H], which protein stability index is on record?
**A.** 1.5

**Q.** For FVRGDHRDNSDFDGPGGNLAHAFQ [P11D], which protein stability index is on record?
**A.** 2.79

**Q.** With FVRGDHRDNSMFDGPGGNLAHAFQ [P11M] as the variant, how does the protein stability index read?
**A.** 1.6

**Q.** With FVRGDHRDNSCFDGPGGNLAHAFQ [P11C] as the variant, how does the protein stability index read?
**A.** 2.61

**Q.** Which protein stability index does the source give for FVRGDHRDNSIFDGPGGNLAHAFQ [P11I] here?
**A.** 1.7

**Q.** Which protein stability index does the source give for FVRGDHRDNSNFDGPGGNLAHAFQ [P11N] here?
**A.** 2.13

**Q.** Which protein stability index does the source give for FVRGDHRDNSKFDGPGGNLAHAFQ [P11K] here?
**A.** 1.78

**Q.** For FVRGDHRDNSPFDGPGGNLAHDFQ [A22D], which protein stability index is on record?
**A.** 2.44

**Q.** Which protein stability index does the source give for FVRGDHRDNSPFDGPGGNLAHEFQ [A22E] here?
**A.** 1.38

**Q.** For FVRGDHRDNSPFDGPGGNLAHGFQ [A22G], which protein stability index is on record?
**A.** 1.58

**Q.** Which protein stability index does the source give for FVRGDHRDNSPFDGPGGNLAHMFQ [A22M] here?
**A.** 2.4

**Q.** Which protein stability index does the source give for FVRGDHRDNSPFDGPGGNLAHRFQ [A22R] here?
**A.** 2.58

**Q.** For FVRGTHRDNSPFDGPGGNLAHAFQ [D5T], which protein stability index is on record?
**A.** 3.73

**Q.** For FVRGWHRDNSPFDGPGGNLAHAFQ [D5W], which protein stability index is on record?
**A.** 2.86

**Q.** For FVRGNHRDNSPFDGPGGNLAHAFQ [D5N], which protein stability index is on record?
**A.** 2.52

**Q.** Which protein stability index does the source give for FVRGVHRDNSPFDGPGGNLAHAFQ [D5V] here?
**A.** 1.81

**Q.** Which protein stability index does the source give for FVRGPHRDNSPFDGPGGNLAHAFQ [D5P] here?
**A.** 2.27

**Q.** For FVRGKHRDNSPFDGPGGNLAHAFQ [D5K], which protein stability index is on record?
**A.** 3.58

**Q.** For FPRGDHRDNSPFDGPGGNLAHAFQ [V2P], which protein stability index is on record?
**A.** 2.85

**Q.** Which protein stability index does the source give for FTRGDHRDNSPFDGPGGNLAHAFQ [V2T] here?
**A.** 3.07

**Q.** With FCRGDHRDNSPFDGPGGNLAHAFQ [V2C] as the variant, how does the protein stability index read?
**A.** 1.63

**Q.** With FGRGDHRDNSPFDGPGGNLAHAFQ [V2G] as the variant, how does the protein stability index read?
**A.** 3.03

**Q.** With FERGDHRDNSPFDGPGGNLAHAFQ [V2E] as the variant, how does the protein stability index read?
**A.** 3.97

**Q.** Which protein stability index does the source give for FMRGDHRDNSPFDGPGGNLAHAFQ [V2M] here?
**A.** 3.03

**Q.** Which protein stability index does the source give for FIRGDHRDNSPFDGPGGNLAHAFQ [V2I] here?
**A.** 1.92

**Q.** For FVRGDHWDNSPFDGPGGNLAHAFQ [R7W], which protein stability index is on record?
**A.** 2.33

**Q.** For FVRGDHQDNSPFDGPGGNLAHAFQ [R7Q], which protein stability index is on record?
**A.** 2.55

**Q.** For FVRGDHIDNSPFDGPGGNLAHAFQ [R7I], which protein stability index is on record?
**A.** 2.77

**Q.** For FVRGDHVDNSPFDGPGGNLAHAFQ [R7V], which protein stability index is on record?
**A.** 2.04
